Patent publication US20210340273A1 (INHLBRX, published 2021)

How the values were obtained:
[1] = target: T1, CD3 on the surface of primary human T cells or Jurkat reporter cells (human, UniProt P07766 23-207); test: printed as Affinity CD3; flow cytometry titration on primary human T cells
T1 construct: whole, on cells; also called CD3 epsilon

[2] = target: T2, human 5T4 (trophoblast glycoprotein), endogenous on the cell surface (human, UniProt Q13641 32-420); test: printed as Affinity 5T4; apparent affinity from flow cytometry titration on Ovcar-5 cells
T2 construct: also called TPBG; 5T4 oncofetal antigen
T2 sequence: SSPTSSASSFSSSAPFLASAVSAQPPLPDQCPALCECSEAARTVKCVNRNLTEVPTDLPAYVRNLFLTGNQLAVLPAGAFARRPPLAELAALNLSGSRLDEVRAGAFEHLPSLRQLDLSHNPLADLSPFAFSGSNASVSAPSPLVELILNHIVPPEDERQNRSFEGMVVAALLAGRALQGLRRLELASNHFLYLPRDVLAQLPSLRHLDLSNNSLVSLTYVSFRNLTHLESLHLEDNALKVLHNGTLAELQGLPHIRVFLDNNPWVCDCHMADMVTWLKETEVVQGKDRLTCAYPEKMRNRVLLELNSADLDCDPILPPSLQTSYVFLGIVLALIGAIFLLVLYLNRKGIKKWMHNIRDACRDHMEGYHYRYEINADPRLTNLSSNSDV
Protocol: Binding of exemplary 5T4-targeting constrained CD3 engaging constructs set forth in Table E3 to CD3 on the surface of primary T cells and 5T4 expressing cells (Ovcar-5) was assessed by flow cytometry. The T cells were primary T-cells that were negatively enriched from PBMCs isolated from healthy human donor leukopaks. Bound construct was detected with fluorophore-conjugated secondary antibodies specific for the human Fc (anti-human IgG APC secondary antibody) and binding was measured by flow cytometry. Cells incubated with secondary antibody only served as negative controls. The results, from flow cytometry histograms displaying normalized cell counts versus fluorescence at 200 nM of each construct, are shown in FIG. 4A (cx3253), FIG. 4B (cx3264), FIG. 4C (cx3497), FIG. 4D (cx3499), FIG. 4E (cx3547), FIG. 4F (cx3546), FIG. 4G (cx4224), FIG. 4H (cx4913), FIG. 4I (cx3265), […] (cx4912), FIG. 4K (cx3262), FIG. 4L (cx4911), and FIG. 4M (cx4910). […] However, as shown in the top right and bottom panels of each of the figures, the same constructs were not able to bind to T cells in isolation.
Table E4 summarizes the affinity of exemplary molecules for 5T4 or CD3, as determined from flow cytometry, in these studies.

[3] = target: T3, human 5T4 construct (Hu), full 5T4 coding region fused to an intracellular Citrine tag, on transfected CHO … (human, UniProt Q13641 32-420); test: flow cytometry on CHO cells transiently transfected with the 5T4 construct
T3 construct: also called fully human construct; not shown: intracellular Citrine tag
T3 sequence: T2 sequence
Source text: (§1) In order to determine the location of the epitope recognized by these sdAbs, various mouse:human chimeric 5T4 constructs were generated, wherein various portions of the murine extracellular domain of 5T4 were replaced with that of human 5T4. The constructs were generated by grafting a nucleic acid sequence encoding the specific region of human 5T4 into the cognate region of mouse 5T4 in a mammalian expression plasmid encoding the full 5T4 coding region (extracellular domain, transmembrane domain, intracellular domain) fused to an intracellular Citrine tag. […] CHO cells were transiently transfected with these constructs to enable cell surface expression, and binding was monitored by flow cytometry.

[4] = target: T4, murine 5T4 construct (Mu), full 5T4 coding region fused to an intracellular Citrine tag, on transfected CHO … (mouse, UniProt Q9Z0L0 32-426); test: as above
T4 construct: also called fully murine construct; mouse 5T4 antigen; not shown: intracellular Citrine tag
T4 sequence: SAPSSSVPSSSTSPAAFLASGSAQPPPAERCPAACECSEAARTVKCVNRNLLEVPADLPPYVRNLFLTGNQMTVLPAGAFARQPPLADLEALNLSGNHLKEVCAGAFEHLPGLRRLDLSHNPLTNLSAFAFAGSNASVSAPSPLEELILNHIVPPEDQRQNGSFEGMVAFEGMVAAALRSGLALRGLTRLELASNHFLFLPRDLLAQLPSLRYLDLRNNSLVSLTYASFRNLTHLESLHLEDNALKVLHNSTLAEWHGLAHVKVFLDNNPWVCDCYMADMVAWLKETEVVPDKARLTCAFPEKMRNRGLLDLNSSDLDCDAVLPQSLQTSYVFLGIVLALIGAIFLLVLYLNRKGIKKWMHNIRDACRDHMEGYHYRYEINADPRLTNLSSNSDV
Source text: as §1

hmc5T4.1 = target: T5, hmc5T4.1; test: as above
T5 construct: the rest is mouse 5T4; also called chimeric hmc5T4.1; hybrid mouse/human 5T4 with human residues 1-173 of the extracellular domain; not shown: intracellular Citrine tag fused to the full coding region
T5 chain: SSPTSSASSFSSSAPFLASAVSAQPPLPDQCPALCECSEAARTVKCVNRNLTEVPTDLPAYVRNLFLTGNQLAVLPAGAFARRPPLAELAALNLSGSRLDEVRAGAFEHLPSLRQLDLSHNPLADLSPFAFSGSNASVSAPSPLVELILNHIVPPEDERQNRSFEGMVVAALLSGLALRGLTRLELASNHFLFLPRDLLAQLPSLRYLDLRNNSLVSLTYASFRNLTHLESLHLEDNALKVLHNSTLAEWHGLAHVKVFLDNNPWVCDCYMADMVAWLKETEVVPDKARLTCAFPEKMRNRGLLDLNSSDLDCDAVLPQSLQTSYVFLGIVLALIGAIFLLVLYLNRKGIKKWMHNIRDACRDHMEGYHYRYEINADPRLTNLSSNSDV
Source text: as §1

[5] = target: T2, human 5T4 (trophoblast glycoprotein), …; test: flow cytometry on 5T4-positive OVCAR5 (Ovcar-5) cells, anti-human IgG secondary; titration
Protocol: FIGS. 4A-4M depict the binding of various 5T4-target constrained CD3 engaging constructs to the 5T4 positive Ovcar-5 cell line (top left) and the lack of binding to primary human T-cells (top right). […] Binding was assessed by flow cytometry using an anti-human IgG APC secondary antibody. The histograms display the normalized cell counts vs fluorescence at 200 nM of each construct.
Binding of exemplary 5T4-targeting constrained CD3 engaging constructs set forth in Table E3 to CD3 on the surface of primary T cells and 5T4 expressing cells (Ovcar-5) was assessed by flow cytometry. The T cells were primary T-cells that were negatively enriched from PBMCs isolated from healthy human donor leukopaks. Bound construct was detected with fluorophore-conjugated secondary antibodies specific for the human Fc (anti-human IgG APC secondary antibody) and binding was measured by flow cytometry. Cells incubated with secondary antibody only served as negative controls. […] The results, from flow cytometry histograms displaying normalized cell counts versus fluorescence at 200 nM of each construct, are shown in FIG. 4A (cx3253), FIG. 4B (cx3264), FIG. 4C (cx3497), FIG. 4D (cx3499), FIG. 4E (cx3547), FIG. 4F (cx3546), FIG. 4G (cx4224), FIG. 4H (cx4913), FIG. 4I (cx3265), […] (cx4912), FIG. 4K (cx3262), FIG. 4L (cx4911), and FIG. 4M (cx4910). […]

hmc5T4.2 = target: T6, hmc5T4.2; test: flow cytometry on CHO cells transiently transfected with the 5T4 construct
T6 construct: the rest is mouse 5T4; also called chimeric hmc5T4.2; not shown: intracellular Citrine tag fused to the full coding region
T6 chain: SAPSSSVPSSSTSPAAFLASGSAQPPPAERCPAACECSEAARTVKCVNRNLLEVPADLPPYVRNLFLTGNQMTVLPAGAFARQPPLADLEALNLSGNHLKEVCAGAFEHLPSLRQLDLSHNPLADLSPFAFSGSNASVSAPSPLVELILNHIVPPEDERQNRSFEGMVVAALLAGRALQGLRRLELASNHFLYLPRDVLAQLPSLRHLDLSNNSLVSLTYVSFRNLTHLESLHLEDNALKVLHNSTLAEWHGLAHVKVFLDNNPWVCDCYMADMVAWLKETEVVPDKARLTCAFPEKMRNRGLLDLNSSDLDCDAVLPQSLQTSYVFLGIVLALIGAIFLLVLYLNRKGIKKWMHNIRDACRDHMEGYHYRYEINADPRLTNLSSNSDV
Source text: as §1

[6] = target: T2, human 5T4 (trophoblast glycoprotein), …; test: flow cytometry, sdAb-Fc on 5T4 expressing T47D cells
[7] = target: T3, human 5T4 construct (Hu), full 5T4 …; test: flow cytometry on CHO cells transfected with human, mouse and chimeric 5T4 constructs
Source text: as §1

[8] = target: T4, murine 5T4 construct (Mu), full 5T4 …; test: flow cytometry on CHO cells transfected with the fully murine 5T4 construct (Mu, FIG. 26C)
Source text: as §1

T1 sequence (P07766 23-207): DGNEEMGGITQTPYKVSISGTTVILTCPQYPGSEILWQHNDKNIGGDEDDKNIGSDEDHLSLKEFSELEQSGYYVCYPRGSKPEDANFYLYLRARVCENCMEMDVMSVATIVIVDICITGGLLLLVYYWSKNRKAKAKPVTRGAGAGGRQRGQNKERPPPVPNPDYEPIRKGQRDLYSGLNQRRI

B1: cx3264, 5T4-targeted constrained CD3 engaging construct with a 41BB binding domain (bispecific antibody)
chain 1: QVQLQESGGGLVQAGGSLRLSCAASRRPFSSKTMAWFRQTPGKEREFVAAVRWIGGATRYTDSVKGRFSISKDNAINTVYLQTNSLKSEDTAVYYCAAGQTWGTKFTDYSDWGQGTLVTVKPDKTHTCPPCPAPELLGGPSVFLFPPKPKDTLMISRTPEVTCVVVDVSHEDPEVKFNWYVDGVEVHNAKTKPREEQYNSTYRVVSVLTVLHQDWLNGKEYKCKVSNKALPAPIEKTISKAKGQPREPQVYTLPPCRDELTKNQVSLWCLVKGFYPSDIAVEWESNGQPENNYKTTPPVLDSDGSFFLYSKLTVDKSRWQQGNVFSCSVMHEALHNHYTQKSLSLSPTGGSGGGGIEPDIGGSGGSEVQLVESGGGLVQPGGSLRLSCAASGFTFNTYAMNWVRQAPGKCLEWVARIRSKYNNYATYYADSVKGRFTISRDDAKNTLYLQMSSLRAEDTAVYYCVRHGNFGNSYVSWFAYWGQGTLVTVKPQVQLQESGGGLVQAGGSLRLSCAASRRPFSSKTMAWFRQTPGKEREFVAAVRWIGGATRYTDSVKGRFSISKDNAINTVYLQTNSLKSEDTAVYYCAAGQTWGTKFTDYSDWGQGTLVTVKP
chain 2: not shown
Work on B1 yielded a Kd [1] greater than 200 nM and a Kd [2] of 0.145 nM.

B2: hz12E9v9 sdAb-Fc (Fc fusion)
chain: EVQLVESGGGEVQPGGSLRLSCAASGRPFSSKTMAWFRQAPGKEREFVAAVRWIGGATRYTESVKGRFTISRDNAKNTVYLQMSSLRAEDTAVYYCAAGQAWGTKFTDYSDWGQGTLVTVKP
notes: Humanized variant of 12E9; also called hz12E9v09; hz12E9v9-Fc; not shown: human Fc
With B2 the “EC50 (read off the curve)” value [3] was roughly 1 nM, the binding result [4] was “no binding (tested: about 500 nM)” and the “EC50 (read off the curve)” value (hmc5T4.1) was roughly 0.8 nM.

B3: cx3497, 5T4-targeted constrained CD3 engaging construct with a 41BB binding domain (bispecific antibody)
chain 1: QVQLVQSGGGLVQAGGSLRLSCAASRRPFSSKTMAWFRQTPGKEREFVAAVRWIGGATRYTDSVKGRFSISKDNAINTVYLQMNSLKSEDTAVYYCAAGQAWGTKFTDYSDWGQGTQVTVKPDKTHTCPPCPAPELLGGPSVFLFPPKPKDTLMISRTPEVTCVVVDVSHEDPEVKFNWYVDGVEVHNAKTKPREEQYNSTYRVVSVLTVLHQDWLNGKEYKCKVSNKALPAPIEKTISKAKGQPREPQVYTLPPCRDELTKNQVSLWCLVKGFYPSDIAVEWESNGQPENNYKTTPPVLDSDGSFFLYSKLTVDKSRWQQGNVFSCSVMHEALHNHYTQKSLSLSPTGGSGGGGIEPDIGGSGGSEVQLVESGGGLVQPGGSLRLSCAASGFTFNTYAMNWVRQAPGKCLEWVARIRSKYNNYATYYADSVKGRFTISRDDAKNTLYLQMSSLRAEDTAVYYCVRHGNFGNSYVSWFAYWGQGTLVTVKPQVQLLQSGGGLVQAGGSLILSCAVSGRPFSSSAMGWFRQAPGKERETVAAVSRNGGSSYYADFVKGRFTISRDNDKNTVYLQMNSLKPEDTAVYYCAARSAAYSRSSETYTEKHDYTYWGQGTQVTVKP
chain 2: not shown
notes: Heterodimeric multispecific construct (5T4 x CD3 x 41BB)
B3 was tested, and the Kd [2] was 0.646 nM and the “EC50 (read off the curve)” value [5] was roughly 0.7 nM.

B4: hz16G10v11 sdAb-Fc (Fc fusion)
chain: EVQLVESGGGEVQPGGSLRLSCAASGRPFSSYAMGWFRQAPGKERETVAAVSRNAGSSYYAESVKGRFTISRDNAKNTVYLQMSSLRAEDTAVYYCAARSAAYSRSSETYTEKHDYTYWGQGTLVTVKP
notes: Humanized variant of 16G10, linked to a human Fc; also called hz16G10v11-Fc; cx7885; not shown: human Fc
In the case of B4, the “EC50 (read off the curve)” value (hmc5T4.2) is reported as roughly 2 nM, the “EC50 (read off the curve)” value [3] is reported as roughly 3 nM and the binding result [4] is reported as “no binding (tested: about 500 nM)”.

B5: hz14B5v17 sdAb-Fc (Fc fusion)
chain: EVQLVESGGGEVQPGGSLRLSCAASERPFGTYAMGWFRQAPGKERDLVAAVSRNAGASYYAESVKGRFTISRDNAKNTVYLQMSSLRAEDTAVYYCAARSAAYSRSSEVYTGKDEYYYWGQGTLVTVKP
notes: Humanized variant of 14B5, linked to a human Fc; not shown: human Fc
B5: binds [6]; binds [7]; no binding [8].

B6: cx3499, 5T4-targeted constrained CD3 engaging construct with a 41BB binding domain (bispecific antibody)
chain 1: QVQLVQSGGGLVQAGGSLRLSCAASRRPFSSKTMAWFRQTPGKEREFVAAVRWIGGATRYTDSVKGRFSISKDNAINTVYLQMNSLKSEDTAVYYCAAGQAWGTKFTDYSDWGQGTQVTVKPDKTHTCPPCPAPELLGGPSVFLFPPKPKDTLMISRTPEVTCVVVDVSHEDPEVKFNWYVDGVEVHNAKTKPREEQYNSTYRVVSVLTVLHQDWLNGKEYKCKVSNKALPAPIEKTISKAKGQPREPQVYTLPPCRDELTKNQVSLWCLVKGFYPSDIAVEWESNGQPENNYKTTPPVLDSDGSFFLYSKLTVDKSRWQQGNVFSCSVMHEALHNHYTQKSLSLSPTGGSGGGGIEPDIGGSGGSEVQLVESGGGLVQPGGSLRLSCAASGFTFNTYAMNWVRQAPGKCLEWVARIRSKYNNYATYYADSVKGRFTISRDDAKNTLYLQMSSLRAEDTAVYYCVRHGNFGNSYVSWFAYWGQGTLVTVKPQVQLVQSGGGLVQAGDSLTLSCAVSERPFGTYAMGWFRQAPGRERDLVAAVSRNGGASQYGDSVKGRFSISRDNIKNTMYLQMNSLKPEDTAVYYCAARSAAYSRSSEVYTGKDEYYYWGQGTQVTVKP
chain 2: not shown
notes: as for B3
For B6, the Kd [2] was 0.653 nM and the “EC50 (read off the curve)” value [5] was roughly 0.7 nM.
